Experimental data reported in US20220249633A1.

target: HLA-A*24 (human); experiment: UV-exchange ELISA, exchange yield grade

Binder | peptide exchange yield
VFSRDFGLLVF [… (SEQ ID NO: 125)] | 50 to 75%
GYIEHFSLW [… (SEQ ID NO: 120)] | > 75%
AYVIAVHLF [… (SEQ ID NO: 116)] | > 75%
VYPFDWQYI [… (SEQ ID NO: 128)] | > 75%
YYTQYSQTI [… (SEQ ID NO: 96)] | > 75%
KYIDYLMTW [… (SEQ ID NO: 129)] | > 75%
RYGLPAAWSTF [… (SEQ ID NO: 121)] | 50 to 75%
IYSFHTLSF [… (SEQ ID NO: 113)] | 50 to 75%
KYFPYLVVI [… (SEQ ID NO: 107)] | 50 to 75%
SYGTVSQI [SYGTVSQI (SEQ ID NO: 149)] | > 75%
VYPFENFEF [… (SEQ ID NO: 102)] | 50 to 75%
VYIESRIGTSTSF [… (SEQ ID NO: 100)] | 50 to 75%
SYPKIIEEF [… (SEQ ID NO: 110)] | 50 to 75%
LFITGGQFF [… (SEQ ID NO: 109)] | > 75%
PYLVVIHTL [… (SEQ ID NO: 108)] | 50 to 75%
IYLSDLTYI [… (SEQ ID NO: 117)] | 50 to 75%
TYKDYVDLF [… (SEQ ID NO: 124)] | < 20%
QYILAVPVL [… (SEQ ID NO: 99)] | > 75%

Binder | peptide exchange yield
KYLEDMKTYF [… (SEQ ID NO: 133)] | 50 to 75%
VYTPVLEHL [… (SEQ ID NO: 123)] | 20 to 49%
RYPALFPVL [… (SEQ ID NO: 132)] | > 75%
SYLTWHQQI [… (SEQ ID NO: 104)] | > 75%
QYLDGTWSL [… (SEQ ID NO: 114)] | > 75%
KYLNSVQYI [… (SEQ ID NO: 118)] | 50 to 75%
VFPRLHNVLF [… (SEQ ID NO: 98)] | 50 to 75%
EYQARIPEF [… (SEQ ID NO: 122)] | 50 to 75%
VYRVYVTTF [… (SEQ ID NO: 119)] | 50 to 75%
IYNFVESKL [… (SEQ ID NO: 112)] | 50 to 75%
TYTFLKETF [… (SEQ ID NO: 97)] | > 75%
VYVQILQKL [… (SEQ ID NO: 111)] | 50 to 75%
EYLDRIGQLFF [… (SEQ ID NO: 131)] | 50 to 75%
RYLNKSFVL [… (SEQ ID NO: 115)] | 50 to 75%
IYNETVRDLL [… (SEQ ID NO: 106)] | 50 to 75%
QYFTGNPLF [… (SEQ ID NO: 127)] | 50 to 75%
IYNETITDLL [… (SEQ ID NO: 105)] | 50 to 75%
NYIPVKNGKQF [… (SEQ ID NO: 103)] | 50 to 75%

The next lines start with the values.

peptide exchange yield | Binder
> 75% | RYLTISNLQF [… (SEQ ID NO: 163)]
50 to 75% | KYPDIVQQF [… (SEQ ID NO: 161)]
50 to 75% | AYIPTPIYF [… (SEQ ID NO: 134)]
50 to 75% | VYFKAGLDVF [… (SEQ ID NO: 177)]
> 75% | VFIFKGNEF [… (SEQ ID NO: 172)]
50 to 75% | RYGFYYVEF [… (SEQ ID NO: 167)]
50 to 75% | IYPEWPVVFF [… (SEQ ID NO: 136)]
50 to 75% | VYALKVRTI [… (SEQ ID NO: 145)]
50 to 75% | NYEDHFPLL [… (SEQ ID NO: 171)]
> 75% | VFASLPGFLF [… (SEQ ID NO: 144)]
50 to 75% | NYITGKGDVF [… (SEQ ID NO: 169)]
50 to 75% | DYIPASGFALF [… (SEQ ID NO: 157)]
> 75% | QYPFHVPLL [… (SEQ ID NO: 170)]
20 to 49% | VYNAVSTSF [… (SEQ ID NO: 138)]
> 75% | VYEAMVPLF [… (SEQ ID NO: 135)]
> 75% | RYLINSYDF [… (SEQ ID NO: 140)]
> 75% | FYTLPFHLI [… (SEQ ID NO: 166)]
50 to 75% | NYYERIHAL [… (SEQ ID NO: 146)]
50 to 75% | IFGIFPNQF [… (SEQ ID NO: 139)]
> 75% | VYGVPTPHF [… (SEQ ID NO: 154)]

peptide exchange yield | Binder
50 to 75% | IYEETRGVL [… (SEQ ID NO: 159)]
> 75% | IYKWITDNF [… (SEQ ID NO: 155)]
50 to 75% | VYEKNGYIYF [… (SEQ ID NO: 174)]
> 75% | YYMELTKLLL [… (SEQ ID NO: 156)]
> 75% | QYLEKYYNL [… (SEQ ID NO: 173)]
50 to 75% | EYFTPLLSGQF [… (SEQ ID NO: 165)]
50 to 75% | FYINGQYQF [… (SEQ ID NO: 176)]
> 75% | SYGTVSQIF [… (SEQ ID NO: 148)]
> 75% | VYVPFGGKSMITF [… (SEQ ID NO: 153)]
50 to 75% | SYNGHLTIWF [… (SEQ ID NO: 141)]
50 to 75% | RYGDGGSSF [… (SEQ ID NO: 160)]
20 to 49% | KYTSYILAF [… (SEQ ID NO: 162)]
50 to 75% | LYLAFPLAF [… (SEQ ID NO: 147)]
50 to 75% | HYVPATKVF [… (SEQ ID NO: 164)]
50 to 75% | KYIFQLNEI [… (SEQ ID NO: 143)]
> 75% | EYLHNCSYF [… (SEQ ID NO: 137)]
20 to 49% | KFFDDLGDELLF [… (SEQ ID NO: 152)]
50 to 75% | LYSPVPFTL [… (SEQ ID NO: 175)]
50 to 75% | RYLEAALRL [… (SEQ ID NO: 168)]
